B1: ab8 nanobody, wild type (VHH)
VHH: EVQLVESGGGLVQPGGSLRLSCAASGFTFDDYAMSWVRQAPGKGLEWIGRMYNNGRTSYNPSLKSLVTISRDNSKNTLYLQMNSLRAEDTATYYCARDNLGYRPSENLYGMDVWGQGTTVTVSS
B2: ab8 E127W mutant nanobody (VHH)
VHH: B1 VHH with E106W
B3: H11-H4 L106F mutant nanobody (VHH)
VHH: QVQLVESGGGLMQAGGSLRLSCAVSGRTFSTAAMGWFRQAPGKEREFVAAIRWSGGSAYYADSVKGRFTISRDKAKNTVYLQMNSLKYEDTAVYYCAQTHYVSYLFSDYATWPYDYWGQGTQVTVSS
B4: H11-H4 V102Y mutant nanobody (VHH)
VHH: B3 VHH with V102Y, F106L
B5: H11-H4 nanobody, wild type (VHH)
VHH: B3 VHH with F106L
B6: H11-H4 L106W mutant nanobody (VHH)
VHH: B3 VHH with F106W
B7: H11-H4 H100Y mutant nanobody (VHH)
VHH: B3 VHH with H100Y, F106L

Where a chain is given by its changes, count along the chain named. Names and notes keep the numbering of the source.

A word on the koff: it is the first-order rate constant of dissociation. What is called Kd is the concentration at which binding is half-saturated. Read a high Kd as weaker binding.

The first experiment has as its target T1, SARS-CoV-2 spike protein receptor binding domain, wild-type (Wuhan type) (SARS-CoV-2, UniProt P0DTC2). Kind of experiment: BLI.
Take B1: the koff is 0.0291 s⁻¹.
B2 displayed a koff of 0.0148 s⁻¹. This koff is about 2-fold lower than that of the molecule before.

Another experiment concerns the target T1, SARS-CoV-2 spike protein receptor …. The experiment can be described thus: BLI. This is another data set of the same source. Background: BLI is a label-free optical method that tracks binding on a fibre tip over time.
The molecule B3 had a Kd of 164 nM.
Still for that read-out and setting: the value for B4 was 180 nM; that for B5 was 63.6 nM; that for B6 was 132 nM.
The same measure, in the same setting: the value for B7 was 238 nM.

The target is the same in the next experiment. Kind of experiment: BLI. This is another data set of the same source.
B1 had a Kd of 51.4 nM.
B2 showed a Kd of 2.18 nM.

The target is the same in another experiment. Kind of experiment: BLI. This is another data set of the same source.
The molecule B3 returned a koff of 0.149 s⁻¹.
Same read-out and setting: with B4 the figure was 0.543 s⁻¹; with B5, 0.0406 s⁻¹; with B6, 0.739 s⁻¹.
Still for that read-out and setting: the value for B7 was 0.145 s⁻¹.

For the origin of these results see paper PMC11481066 (2024).
